B1: 22B8 (antibody, V domains shown)
VH: QLQLQESGPGLVKPSETLSLTCTVSGGSISSRYYYWGWVRQPPGKGLEWIGTIYYSGHTYYNPSLKTRVTISVDTSKNQFSLKLISVTAADTAVYYCATQQLVLYYFDFWGQGTLVTVSS
VL: EIVLTQSPGTLSLSPGERAALSCRASQSISSSYLAWYQQRPGQAPRLLIYGASSRATGIPDRFNGSGSGTDFTLTISRLEPEDFAVYYCQQFGSSITFGQGTRLEIK
notes: Fully human mAb from XenoMouse hybridoma, tested as hybridoma supernatant
B2: 27D10 (antibody, V domains shown)
VH: QLQLQESGPGLVKPSETLSLTCTVSGGSISSRSDYWGWIRQPPGKGLEWIGTIYYSGSTFYNPSLKSRVTISVDTSKNQFSLKLSSVTAADTAVYYCARQQLVLYYFDYWGQGTLVTVSS
VL: not shown
notes: as for B1
B3: 30A1 (antibody, V domains shown)
VH: QLQLQESGPGLVKPSETLSLTCTVSGGSISSPNYYWGWIRQPPGKGLEWIGTIYYSGNTFYNPSLKSRVTISVDTSKNQFSLKLSSVTAADTAVYYCATQQLVLYYFDFWGQGTLVTVSS
VL: EIVLTQSPGTLSLSPGKRAALSCRASQSISSSYLAWYQQKPGQAPRLLIYGASSRATGIPDRFNGSGSGTDFTLTISRLEPEDFAVYYCQQLGSSITFGQGTRLEIK
notes: as for B1
B4: 27A3 (antibody, V domains shown)
VH: QLQLQESGPGLVKPSETLSLTCTVSGGSISSRSDYWGWIRQPPGKGLEWIGTIYYSGDTYYNPSLKSRVTISVDTSKNQFSLKLSSVTAADTAVYYCARQQLVLYYFDYWGQGTLVTVSS
VL: EIVLTQSPGTLSLSPGERATLSCRASQSVSSSYLAWYQQKPGQAPRLLIYATSNRATGIPDRFSGSGSGTDFTLTISRLEPEDFAVYYCQQHGSSPPLTFGGGTKVEIK
notes: as for B1
B5: 24B3 (antibody, V domains shown)
VH: EVQLVESGGGLVKPGGSLRLSCAASGFTFSTYSMNWVRQAPGKGLEWVSFISGRSSYIYYADSVKGRFTISRDNAKNSLYLQMNSLRAEDTAVYYCSKDDWFEELWGQGTLVTVSS
VL: DIQMTQSPSSLSASVGDRVTITCRASQGIRSDLGWYQQKPGKAPKRLIYATSSLQSGVPSRFSGSGSGTEFTLTISSLQPEDFATYYCLQHNRYPWTFGQGTKVEIK
notes: as for B1
B6: 33B1 (antibody, V domains shown)
VH: EVQLVESGGGLVKPGGSLRLSCAASGFTFSSYTMNWVRQAPGKGLEWVSFIDSRSSYIYYADSVKGRFTISRDNAKNSLYLQMNSLRAEDTAVYYCSKDDWFEELWGQGTLVTVSS
VL: DIQMTQSPSSLSASVGDRVTITCRASQGIRNDLGWYQQKPGKAPKRLIYATSSLQSGVPSRFSGSGSGTEFTLTISSLQPEDFATYYCLHHNSFPWTFGQGTKVEIK
notes: as for B1
B7: 24C9 (antibody, V domains shown)
VH: EVQLVESGGGLVKPGGSLRLSCAASGFTFSTYSMNWVRQAPGKGLEWVSFISGRSSYIYYADSVKGRFTISRDNAKNSLYLQMNSLRAEDTAVYYCSKDDWFEELWGQGTLVTVSS
VL: DIQMTQSPSSLSASVGDRVTITCRASQGIRNDLGWYQQKPGKAPKRLIYATFSLQSGVPSRFSGSGSGTEFTLTISSLQPEDFATYYCLQHNRYPWTFGQGTKVEIK
notes: as for B1
B8: 32G7 (antibody, V domains shown)
VH: EVQLVESGGGLVKPGGSLRLSCAASGFTISSYSMNWVRQAPGKGLEWVSFISSRSNYIYYADSVKGRFTISRDNAKNSLYLQMNSLRAEDTAVYYCSKDDWFEELWGQGTLVTVSS
VL: DIQMTQSPSSLSASVGDRVTITCRASQDIRNDLGWYQQKPGKAPKRLIYAASSLQSGVPSRFSGSGSGTEFTLTISSLQPEDFATYYCLQHNSFPWTFGQGTKVEIK
notes: as for B1

Tests used:
[1] = biological target: KDR endogenously expressed on human umbilical vein endothelial cells (HUVEC) (human, UniProt P35968 20-1356); experiment: cell-based or functional assay
Sequence of KDR endogenously expressed on human umbilical vein endothelial cells (HUVEC) (P35968 20-1356): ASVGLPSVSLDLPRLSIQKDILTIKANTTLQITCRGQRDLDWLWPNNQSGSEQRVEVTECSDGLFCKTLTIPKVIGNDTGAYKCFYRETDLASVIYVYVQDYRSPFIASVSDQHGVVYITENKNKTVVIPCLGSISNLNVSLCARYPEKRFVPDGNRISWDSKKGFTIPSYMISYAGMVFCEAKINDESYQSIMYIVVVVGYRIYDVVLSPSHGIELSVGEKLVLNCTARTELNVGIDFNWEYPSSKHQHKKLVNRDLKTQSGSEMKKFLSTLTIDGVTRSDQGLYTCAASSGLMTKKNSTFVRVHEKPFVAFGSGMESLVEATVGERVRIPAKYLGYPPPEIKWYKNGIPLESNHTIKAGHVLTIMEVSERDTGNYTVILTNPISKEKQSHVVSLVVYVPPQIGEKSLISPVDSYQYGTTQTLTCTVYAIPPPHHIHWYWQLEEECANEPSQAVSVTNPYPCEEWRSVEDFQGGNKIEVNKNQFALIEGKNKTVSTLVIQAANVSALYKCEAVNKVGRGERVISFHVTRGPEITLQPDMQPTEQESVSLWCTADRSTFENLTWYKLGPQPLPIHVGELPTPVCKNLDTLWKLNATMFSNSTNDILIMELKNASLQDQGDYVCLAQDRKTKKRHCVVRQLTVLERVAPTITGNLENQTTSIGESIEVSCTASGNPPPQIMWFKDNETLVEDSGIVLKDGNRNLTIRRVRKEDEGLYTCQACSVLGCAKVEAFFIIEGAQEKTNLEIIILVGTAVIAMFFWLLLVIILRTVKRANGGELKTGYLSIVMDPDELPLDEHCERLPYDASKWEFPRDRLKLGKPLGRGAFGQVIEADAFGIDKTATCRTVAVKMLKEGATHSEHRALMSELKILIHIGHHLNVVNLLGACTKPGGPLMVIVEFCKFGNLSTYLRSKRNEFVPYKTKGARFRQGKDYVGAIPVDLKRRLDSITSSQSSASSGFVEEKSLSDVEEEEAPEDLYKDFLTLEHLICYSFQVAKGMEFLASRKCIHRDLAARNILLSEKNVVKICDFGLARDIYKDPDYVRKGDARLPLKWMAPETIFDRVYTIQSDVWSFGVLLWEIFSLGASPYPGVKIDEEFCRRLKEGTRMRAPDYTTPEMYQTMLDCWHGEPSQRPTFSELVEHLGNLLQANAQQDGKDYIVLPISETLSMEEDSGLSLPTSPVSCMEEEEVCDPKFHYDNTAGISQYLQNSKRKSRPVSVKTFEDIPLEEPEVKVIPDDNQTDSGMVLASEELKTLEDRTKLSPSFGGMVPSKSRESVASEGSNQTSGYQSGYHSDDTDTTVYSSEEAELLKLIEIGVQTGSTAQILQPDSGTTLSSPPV

[2] = biological target: T1, soluble KDR extracellular domain (ECD) (Calbiochem) (human, UniProt P35968 20-764); experiment: High Antigen ELISA, KDR coat 500 ng/mL, supernatant 1:25
T1 construct: extracellular domain; Bought protein; also called KDR-ECD; VEGF Receptor 2 D1-7, Cat. #676490
T1 sequence (P35968 20-764): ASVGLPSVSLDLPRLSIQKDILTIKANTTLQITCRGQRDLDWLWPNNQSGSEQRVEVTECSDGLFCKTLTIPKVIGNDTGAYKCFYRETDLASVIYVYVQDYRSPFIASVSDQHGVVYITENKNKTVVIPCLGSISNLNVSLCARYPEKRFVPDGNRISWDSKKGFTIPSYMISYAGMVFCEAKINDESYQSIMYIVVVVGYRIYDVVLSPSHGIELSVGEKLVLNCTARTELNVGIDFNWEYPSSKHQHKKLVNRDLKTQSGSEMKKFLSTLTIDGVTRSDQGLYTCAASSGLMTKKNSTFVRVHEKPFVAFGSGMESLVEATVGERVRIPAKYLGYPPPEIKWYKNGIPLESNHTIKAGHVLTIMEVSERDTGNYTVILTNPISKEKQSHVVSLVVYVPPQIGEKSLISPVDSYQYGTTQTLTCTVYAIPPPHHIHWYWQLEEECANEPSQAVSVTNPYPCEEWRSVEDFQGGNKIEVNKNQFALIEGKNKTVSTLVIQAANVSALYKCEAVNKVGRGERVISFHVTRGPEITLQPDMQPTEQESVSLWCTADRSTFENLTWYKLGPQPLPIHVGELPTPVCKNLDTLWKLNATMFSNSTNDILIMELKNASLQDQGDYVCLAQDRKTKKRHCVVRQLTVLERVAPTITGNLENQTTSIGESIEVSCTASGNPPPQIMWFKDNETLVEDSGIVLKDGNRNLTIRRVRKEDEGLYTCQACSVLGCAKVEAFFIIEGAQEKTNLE
Method: (§1) ELISA plates were coated with a greater amount of KDR (at 500 ng/mL) in comparison with the Limited Antigen Quantitation assay described below. Sample containing antibody (Ab) was titrated on the KDR-coated ELISA plates and was incubated overnight at 4° C. to allow Ab binding to approach equilibrium. Titration of Ab in sample covered a dilution range of 1:25 to 1:18,225. A standard curve of KDR-specific antibody of known concentration was used to define the linear range of the assay. Data within the linear range were used to derive the relative concentration of KDR-specific Ab in each titrated sample. The high KDR concentration and the overnight incubation limited the effect of Ab affinity, allowing quantitation of the relative amount of KDR-specific Ab present in each sample.

[3] = biological target: T1, soluble KDR extracellular domain (ECD) …; experiment: High Antigen ELISA, KDR coat 500 ng/mL, supernatant 1:75
Method: as §1

[4] = biological target: T1, soluble KDR extracellular domain (ECD) …; experiment: High Antigen ELISA, KDR coat 500 ng/mL, supernatant 1:225
Method: as §1

[5] = biological target: T1, soluble KDR extracellular domain (ECD) …; experiment: High Antigen ELISA, KDR coat 500 ng/mL, supernatant 1:675
Method: as §1

[6] = biological target: T1, soluble KDR extracellular domain (ECD) …; experiment: High Antigen ELISA, KDR coat 500 ng/mL, supernatant 1:2025
Method: as §1

[7] = biological target: T1, soluble KDR extracellular domain (ECD) …; experiment: High Antigen ELISA, KDR coat 500 ng/mL, supernatant 1:6075
Method: as §1

[8] = biological target: T1, soluble KDR extracellular domain (ECD) …; experiment: Limited Antigen ELISA, KDR coat 25 ng/mL, supernatant 1:25
Method: (§2) Samples containing one concentration of antibody (Ab) (1:25 dilution) were incubated overnight to allow Ab binding to approach equilibrium. The low antigen concentration limited the effect of antibody concentration, allowing ranking of the antibodies based on their relative affinity.

[9] = biological target: T1, soluble KDR extracellular domain (ECD) …; experiment: Limited Antigen ELISA, KDR coat 50 ng/mL, supernatant 1:25
Method: as §2

[10] = biological target: T1, soluble KDR extracellular domain (ECD) …; experiment: High Antigen ELISA, KDR coat 500 ng/mL, supernatant 1:18,225
Method: as §1

[11] = biological target: T1, soluble KDR extracellular domain (ECD) …; experiment: Limited Antigen ELISA, KDR coat 12.5 ng/mL, supernatant 1:25
Method: as §2

[12] = biological target: T1, soluble KDR extracellular domain (ECD) …; experiment: Limited Antigen ELISA, KDR coat 6.25 ng/mL, supernatant 1:25
Method: as §2

[13] = biological target: T1, soluble KDR extracellular domain (ECD) …; experiment: Limited Antigen ELISA, KDR coat 3.125 ng/mL, supernatant 1:25
Method: as §2

| Binder | VEGF-E-mediated Survival % Inhibition (Average) [1] | VEGF-E-mediated Survival % Inhibition (n = 1) [1] | VEGF-E-mediated Survival % Inhibition (n = 2) [1] | ELISA reading [2] | ELISA reading [3] | ELISA reading [4] | ELISA reading [5] | ELISA reading [6] | ELISA reading [7] | ELISA reading [8] | ELISA reading [9] | ELISA reading [10] | ELISA reading [11] | ELISA reading [12] | ELISA reading [13] |
| --- | --- | --- | --- | --- | --- | --- | --- | --- | --- | --- | --- | --- | --- | --- | --- |
| B1 | 55% | 57% | 53% | 6 | 6 | 6 | 3.49 | 1.27 | 0.31 | 1.84 | 3.36 | 0.2 | 0.91 | 0.42 | 0.21 |
| B2 | 57% | 50% | 64% | 4.09 | 4.02 | 3.95 | 3.79 | 1.87 | 0.89 | 0.54 | 1.36 | 0.41 | 0.25 | 0.14 | 0.12 |
| B3 | 58% | 58% | 59% | 4.52 | 4.78 | 6 | 4.28 | 3.37 | 1.58 | 0.87 | 1.77 | 1.11 | 0.5 | 0.27 | 0.15 |
| B4 | 58% | 63% | 52% | 4.79 | 4.72 | 5.26 | 3.93 | 2.05 | 0.96 | 1.26 | 2.3 | 0.4 | 0.54 | 0.26 | 0.15 |
| B5 | 66% | 65% | 66% | 2.33 | 1.58 | 1.16 | 0.79 | 0.31 | 0.13 | 0.21 | 0.38 | 0.08 | 0.12 | 0.08 | 0.07 |
| B6 | 67% | 66% | 68% | 2.71 | 2.32 | 1.62 | 1.1 | 0.55 | 0.25 | 0.2 | 0.23 | 0.2 | 0.12 | 0.08 | 0.08 |
| B7 | 72% | 72% | 72% | 3.67 | 2.48 | 2.14 | 1.45 | 0.54 | 0.2 | 0.23 | 0.5 | 0.11 | 0.13 | 0.09 | 0.07 |
| B8 | 62% | 69% | 54% | 2.03 | 1.27 | 0.96 | 0.55 | 0.38 | 0.24 | 0.15 | 0.19 | 0.11 | 0.11 | 0.08 | 0.07 |
